Laboratory results reported in US20130109048A1, “METHOD FOR IN-VITRO MONITORING OF NEURONAL DISORDERS AND USE THEREOF” (ECOLE POLYTECHNIQUE FEDERALE DE LAUSANNE (EPFL), priority 2010, published 2013).
“Also recorded” adds a separate entry of the source.

Assays:
[1] = system: rat primary cortical neurons; assay: MEA recording of spontaneous electrical activity (population bursts), TrkB inhibitor experiments; type: cell-based; settings: K252a 10 nM or 100 nM; 30 min recordings 45 min and 24 h after addition; cultures at 14-15 DIV
Protocol: Cortical cells were prepared and cultured as described previously (Van Pelt et al., 2004, IEEE Trans. Biomed. Eng., 51: 2051-2062). Cells were plated on multielectrode arrays (MEAs) and/or culture dishes, with prior surface coating by polyethylenimine (10 mg/ml, Fluka) and laminin (0.02 mg/ml, Gibco) in Neurobasal medium (MEAs) or poly-L-lysine (0.01%) in water (culture dishes), respectively, which allow the cells to readily attach to the surface and extend neurites. Plating density was 1′500 cells/mm^2 for MEAs, allowing for quick network formation and high multichannel electrophysiological recordings efficiency. A lower density of 500 cells/mm^2 was used for culture dishes, to facilitate cell counting and morphological analysis. […]
After 5 min of accommodation time following the mounting of each MEA inside the recording setup, spontaneous electrical activity from the cultured neurons was detected, amplified, and recorded at each of the 60 substrate extracellular electrodes simultaneously for 30 min at 20 kHz/channel. Recorded traces consisted in electric voltage signals whose sudden small large amplitude fluctuations are known to be produced by the nerve impulse discharges emitted by neurons growing in close proximity to the substrate electrodes that detect them extracellularly, directly related to the firing of action potentials by the neurons in the proximity of each electrode. […]

[2] = system: rat primary cortical neurons; assay: Neuronal viability by counts of NeuN-positive nuclei; type: cell-based; settings: cultures treated with K252a 10 nM or 100 nM
Protocol: Cultures were washed with PBS and fixed in 4% paraformaldehyde (Fluka/Sigma, Buchs, Switzerland) or in methanol (Merck, Germany) for PSD95 (Post-synaptic density protein of 95 kDa) staining for 10 min at 4° C. Cultures were incubated with NeuN antibody which reacts with fox-3 (1:500, Chemicon, Temecula, Calif.) or 2B4 antibody which reacts with huntingtin (1:500 Millipore, Zug, Switzerland), antibody which reacts with postsynaptic density protein of 95 kDa (PSD95) (Sans et al., 2000, J. Neurosci. 20:1260-71) (1:200, Affinity Bioreagents, Golden, Colo.) and antibody which reacts neuronal class III beta-tubulin Tuj1 (Jepsen et al., 2000, Cell 102(6): 753-763) (1:2000, Covance, Emerville, Calif.) in PBS containing 10% normal goat serum (NGS, Gibco, Invitrogen, Basel, Switzerland) and 0.1% Triton X-100 (TX, Fluka, Sigma, Buchs, Switzerland). Cultures were rinsed three times in PBS and then incubated for 1 hour with fluorescent goat anti-mouse secondary antibodies (for NeuN: 1:1000 Cy3-conjugated antibody from Jackson Immunoresearch Laboratories, WestGrove, Pa.; for 2B4: 1:1000 Alexa Fluor® 488-conjugated antibodies from Invitrogen, Basel, Switzerland, for Tuj1: 1:1000 Alexa Fluor® 594-conjugated antibody from Invitorgen, Basel, Switzerland). Where indicated, cultures were stained with Hoechst 33342 dye (Invitrogen, Basel, Switzerland). […]

[3] = system: htt171-82Q-expressing cortical cells; assay: MEA recording of spontaneous electrical activity in Huntington's disease cell model with BDNF; type: cell-based, rat; settings: BDNF 50 ng/ml added twice weekly
Text: Cells modeling in-vitro HD-related cortical dysfunction were engineered for use in a method according to the invention for showing that the effects of molecular changes on synaptic changes in cortical microcircuits exposed to mutant htt fragments could be measured by a method according to the invention. To this end, cortical cells E16-E19 Wistar rat embryos (Charles River, France) were engineered by lentiviral gene transfer using Human Immunodeficiency Virus Type 1 (HIV-1)-derived vectors to express the first 171 amino acids of normal or mutated htt under the control of a tetracycline response element-containing promoter as described in Rudinskiy et al., 2009, J. Neurochem., 111: 460-472 (FIGS. 1A,B) to achieve high transduction efficiency and high levels of transgene expression in rat primary cortical neurons following the protocol below.
Plasmids encoding the first 171 amino acids of mutated htt (htt171-82Q) (FIG. 6, SEQ ID NO: 14) or wild-type htt (htt171-18Q) (FIG. 6, SEQ ID NO: 15) under the control of a tetracycline-regulated element promoter, or the tetracycline-regulatable transactivator (tTA1) under the control of a phosphoglycerate kinase promoter were used to prepare self-inactivating lentiviral vectors (FIG. 1A) as described previously (Regulier et al., 2003, Hum. Mol. Genet., 12: 2827-2836). Lentiviral particles were re-suspended in phosphate-buffered saline (PBS)+1% bovine serum albumin and the particle content of viral batches was assessed by p24 ELISA (RETROtek, Gentaur, Paris, France) (Viral titering involves capture of p24 viral protein from the sample on a microtiter plate and detection with a second anti-p24 antibody and visualization via a colorimeteric horseradish-generated product detected at 450 nm) Cells were plated as described below. On the day following cell plating, cultures were infected with lentiviruses at ratios of 150 ng p24/1000 cells (tTA1) and 120 ng p24/1000 cells (htt171-82Q or htt171-18Q) (FIG. 1B).
Cortical cells were prepared and cultured as described previously (Van Pelt et al., 2004, IEEE Trans. Biomed. Eng., 51: 2051-2062). Cells were plated on multielectrode arrays (MEAs) and/or culture dishes, with prior surface coating by polyethylenimine (10 mg/ml, Fluka) and laminin (0.02 mg/ml, Gibco) in Neurobasal medium (MEAs) or poly-L-lysine (0.01%) in water (culture dishes), respectively, which allow the cells to readily attach to the surface and extend neurites. Plating density was 1′500 cells/mm^2 for MEAs, allowing for quick network formation and high multichannel electrophysiological recordings efficiency. A lower density of 500 cells/mm^2 was used for culture dishes, to facilitate cell counting and morphological analysis. Medium containing Neurobasal, 2% B-27 supplement (GIBCO, Invitrogen Corporation, ref 17504) and 10% horse serum (from GIBCO, Invitrogen Corporation, ref. 16050-130) was changed three times per week by removing 0.7 ml and adding 1 ml of fresh medium. Where indicated, recombinant human BDNF (R&D Systems, Minneapolis, Minn., USA) at a concentration of 50 ng/ml was added to the medium twice a week starting from in vitro day 4.
Commercial MEAs with planar TiN substrate electrodes (MultichannelSystems, Reutlingen, Germany) such as described in Potter and De Marse, 2001, above were employed for recording over long-term experiments the spontaneous electrical activity of mammalian neurons, maintained under healthy conditions ex-vivo. […]

[4] = system: htt171-82Q-expressing cortical cells; assay: Counting of PSD95-positive plasma membrane subdomains (punctae) by immunostaining; type: cell-based, rat; settings: BDNF 50 ng/ml added twice weekly; htt171-82Q cells
Protocol: Cultures were washed with PBS and fixed in 4% paraformaldehyde (Fluka/Sigma, Buchs, Switzerland) or in methanol (Merck, Germany) for PSD95 (Post-synaptic density protein of 95 kDa) staining for 10 min at 4° C. Cultures were incubated with NeuN antibody which reacts with fox-3 (1:500, Chemicon, Temecula, Calif.) or 2B4 antibody which reacts with huntingtin (1:500 Millipore, Zug, Switzerland), antibody which reacts with postsynaptic density protein of 95 kDa (PSD95) (Sans et al., 2000, J. Neurosci. 20:1260-71) (1:200, Affinity Bioreagents, Golden, Colo.) and antibody which reacts neuronal class III beta-tubulin Tuj1 (Jepsen et al., 2000, Cell 102(6): 753-763) (1:2000, Covance, Emerville, Calif.) in PBS containing 10% normal goat serum (NGS, Gibco, Invitrogen, Basel, Switzerland) and 0.1% Triton X-100 (TX, Fluka, Sigma, Buchs, Switzerland). […]
The synaptic status was investigated in htt171-82Q- and htt171-18Q-expressing cells. Numbers of PSD95-positive structures was quantified as described above as an indicator of postsynaptic specializations, which comprise zones where neurotransmitter receptors, particularly glutamate receptors, are clustered.

[5] = compared to non-BDNF-treated htt171-82Q sister cultures, 23 days in vitro

COC(=O)[C@@]1(O)C[C@H]2O[C@]1(C)n1c3ccccc3c3c4c(c5c6ccccc6n2c5c31)C(=O)NC4 [TrkB inhibitor, K252a]
PB (population burst) firing [1]: dose- and time-dependent loss of PB firing
neuronal viability (NeuN counts) [2]: without influencing neuronal viability

B1: BDNF: recombinant human brain-derived neurotrophic factor (R&D Systems) (protein, UniProt P23560 19-247, looked up)
Neurotrophic factor BDNF …: APMKEANIRGQGGLAYPGVRTHGTLESVNGPKAGSRGLTSLADTFEHVIEELLDEDQKVRPNEENNKDADLYTSRVMLSSQVPLEPPLLFLLEEYKNYLDAANMSMRVRRHSDPARRGELSVCDSISEWVTAADKKTAVDMSGGTVTVLEKVPVSKGQLKQYFYETKCNPMGYTKEGCRGIDKRHWNSQCRTTQSYVRALTMDSKKRIGWRFIRIDTSCVCTLTIKRGR
PB frequencies [3, 5]: significantly increased PB frequencies
inter-burst intervals (IBIs) [3, 5]: decreased IBIs
PB duration distribution ([3]; htt171-82Q cells): extended to both the IBI and duration distributions
size of individual PBs (numbers of individual action potentials) ([3]; htt171-82Q cells): did not completely restore the size of individual PBs
number of total spikes ([3]; htt171-82Q cells, 30 min recording): number of total spikes remained lower
PSD95-positive bouton-like plasma membrane subdomains (punctae) [4]: increase PSD95-positive boutons; also recorded: reversed by BDNF treatment
